# Experimental data published in CN116819103A.
# B1: 大熊猫TSHβ单克隆抗体 (杂交瘤细胞株TSHB-B, CCTCC NO: C202283) (antibody, IgG1, V domains shown)
# VH: EVKLVESGGGLVKPGGSLKLSCAASGFSFSRYAMSWVRHAPENRLEWVAAISRGGNLYYRDSVKGRFTISRDDARNILYLQMSSLRSEDTAMYYCTRDDYDEDWYFDVWGAGTTVTVSS
# VL: DVLMTQTPLSLPVSLGEQASISCRSSQIIVHSNGNTYLEWYLQKPGQSPKLLIYKVSNRFSGVPDRFSGSGSGTDFTLKISRVEAEDLGVYYCFHGSHIPPTFGGGTKLEIK
# Target: 大熊猫TSHβ亚基特异序列多肽片段TSHβ-2 (大熊猫 (giant panda))
# Assay: indirect ELISA, peptide TSHβ-2 coated at 2 μg/mL, HRP goat anti-mouse, OD450
# Sequence of 大熊猫TSHβ亚基特异序列多肽片段TSHβ-2 (大熊猫 (giant panda)) (peptide, as listed by the source): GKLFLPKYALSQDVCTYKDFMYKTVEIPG
binder,measurement,value
B1,效价 (ELISA titer) (fold dilution),> 1e+06
